Measurements taken from US12312397B2, “Anti-O2 antibodies and uses thereof” (priority 2016, dated 2025).

B1: KPL36: Class II anti-O2 antigen human mAb; VH SEQ ID NO: 189, VL SEQ ID NO: 192 (antibody, V domains shown)
VH: EVQLVESGGGVVQSGGSLRLSCETSGFTFISSWMSWVRQAPGTGLEWVATINPDGTETPYADSLKGRFTISRDNTKKSLYLQIHSLRADDTAVYFCARNKAYNAHDFWGQGTLVMVSS
VL: QSALTQPPSASGSPGQSVTISCTGTSSDVGGNNFVSWYQQYPGKAPKLIIYEVNKRPSGVPDRFSGSKSGNTASLTVSGLQAEDEADYYCGAFGGSKMFGGGTKLTVL
modifications: Description of Artificial Sequence: SyntheticKPL36 VH polypeptide; Description of Artificial Sequence: SyntheticKPL36 VL polypeptide
B2: KPN17: Class I anti-O2 antigen human mAb; VH SEQ ID NO: 71, VL SEQ ID NO: 72 (antibody, V domains shown)
VH: EVQLVESGGGLVQPGGSLRLSCAASGFTFSHFWMHWVRQAPGQGLVWVARIDGSVTNLRYAGSVEGRFTISRDNAKNTLYLQMNSLRDEDTAVYYCARDLVGIGTPAGYGMDVWGQGTTVTVSS
VL: DIQLTQSPSFLSASVGDRVTITCRASQGISTYLAWYQQKPGKAPKLLIYAASTLQSGVPSRFSGSGSGTEFTLTINSLQSEDFATYYCQQLTSHLYTFGQGTKLEIK
modifications: Description of Artificial Sequence: SyntheticKPN17 VH polypeptide; Description of Artificial Sequence: SyntheticKPN17 VL polypeptide
B3: KPS24: Class III anti-O2 antigen human mAb; VH SEQ ID NO: 107, VL SEQ ID NO: 108 (antibody, V domains shown)
VH: ELHLVESGGGLVKPGGSLRLSCAASGFTFKNAWMSWIRQAPGKGLEWVGRVKSEVDGGTTDYGVPVRGRFTISRDDSQSTLSLEMSSLQDDDTGVYYCRAFWSDFQTGYWGQGTLVTVSS
VL: QSVLTQPPSVSAAPGQTVTIACSGSSSNIGSDSVSWFQQLPGTAPRVLMYENNKRPSGISDRFSGSKSGTSVTLGITGLQTGDEADYYCAAWDSSLRAYVFGSGTKVTVL
modifications: Description of Artificial Sequence: SyntheticKPS24 VH polypeptide; Description of Artificial Sequence: SyntheticKPS24 VL polypeptide
B4: KPN44: anti-O2 antigen human mAb; VH SEQ ID NO: 62, VL SEQ ID NO: 63 (antibody, V domains shown)
VH: QVQLQESGPGLVKPSETLSLTCTVSGGSTSSYYWNWIRQAPGKPLQWIANIHHGGTTYYNPSLRSRVTMSLDTSNNQFSLKLTSVTAADTAVYFCARESDDGYRWNYFDYWGQGVLVTVSS
VL: EIVLTQSPASLSLSPGDRATLSCRASQTITNYLAWYQHKPGQAPRLLIFDMSKRATGIPARFSGSGSGTDFTLTISSLEPEDFAVYYCQHRSNWPLFTFGPGTNVDIK
modifications: Description of Artificial Sequence: SyntheticKPN44 VH polypeptide; Description of Artificial Sequence: SyntheticKPN44 VL polypeptide
B5: KPS30: Class I anti-O2 antigen human mAb; VH SEQ ID NO: 125, VL SEQ ID NO: 126 (antibody, V domains shown)
VH: EMQLVESGGGLVQPGVSLRLSCVDSGFSFSTSWLAWVRQAPGKGLEWLANIDPDGSTRNHVDSVRGRFTISRDNAKNSLYLQMNSLRAEDTAVYYCARDYAYNRFDYWGQGTMVTVSS
VL: QSALTQPPSASGSPGQSVVISCTGTSSDIGANNYVSWYQQHPGKAPKLLLYEVNKRPSGVPDRFSASKSGNTASLTVSGLLAEDEADYYCCGYGGGRVFGGGTKLTVL
modifications: Description of Artificial Sequence: SyntheticKPS30 VH polypeptide; Description of Artificial Sequence: SyntheticKPS30 VL polypeptide

test system: O1 LPS activation of NF-κB in RAW264.7-lux cells; assay: LPS neutralization assay (NF-κB luciferase, RAW264.7-lux), O1 LPS; assay type: cell-based, murine; conditions: human IgG1 format
Procedure: (§1) Activation of TLR4 receptors by bacterial LPS leads to downstream activation of the NF-κB transcriptional regulator. A decrease in induction of NF-κB-responsive luciferase activity was used to quantify LPS neutralization activity by LPS mAbs. A murine RAW264.7 macrophage cell line was engineered to carry a firefly luciferase reporter gene under the control of an NF-κB-responsive promoter (RAW264.7-lux). Serially diluted antibody stocks were mixed with LPS in a 1:1 ratio and incubated at 4° C. for 1 hr. Antibody/LPS mixtures were then diluted 1:10 into assay plates containing pre-seeded RAW264.7-lux cells (4e5 cells/well), which were then placed at 37° C. with 5% CO2 for 2.5 hours. Following incubations, Steady Glo solution (Promega) was added to each well and incubated for another 20 min protected from light. The relative light units (RLUs) were measured using a multi-mode microplate reader (Synergy 2, Biotek or envision multilabel plate reader, Perkin Elmer). The percentage of inhibition was determined by comparing RLU derived from assays with no antibodies to RLU derived from assays with anti-K. pneumoniae mAbs and assays performed with a negative control mAb. […] All mAbs were tested in human IgG1 format.

Row | Molecule | neutralizing activity against O1 LPS (NF-κB activation)
1 | B1 | no activity
2 | B2 | no activity
3 | B3 | no activity
4 | B4 | blocked

same assay, conditions: secondary screening

Row | Molecule | neutralization of LPS-O1
5 | B5 | neutralized
6 | B4 | neutralize

test system: O1 LPS; assay: ELISA binding to O1 LPS; set-up: species or system Klebsiella pneumoniae; conditions: secondary screening
Procedure: (§2) The coated plates were incubated with cell culture supernatants from polyclonally stimulated lymphocytes (AMVBRA) or from monoclonal immortalized B cells (donor interrogations) containing fully human antibodies or with diluted plasma samples (PBMC donor selections) for 1 hour at room temperature. The plates were then washed with PBS containing 0.1% Tween-20 (PBS-T). Secondary antibody was added; either Alkaline Phosphatase-conjugated Goat Anti-Human IgG-AP (Southern Biotech, 2040-04, 1:1000 in PBS-B) or Peroxidase AffiniPure F(ab′)2 Fragment Goat Anti-Human IgG, Fc Fragment Specific (Jackson ImmunoResearch #309 036 098, 1:5000 in PBS-B) were used. Secondary antibodies were typically incubated for 1 h. Plates were washed three times with PBS-T, and P-NitroPhenyl Phosphate (pNPP, Sigma-Aldrich, cat #N2765-100TAB) or Sureblue (KPL, 53-00-03) substrates were added and incubated for 10 min or until the development of a colorimetric reaction. In the case of the HRP substrate Sureblue, the reaction was stopped by adding an equal volume of 0.2N HCl. The absorbance at 405 nm (pNPP) or 450 nm (Sureblue) was measured by a microplate reader (Biotek, Elx808).
(§3) The coated plates were incubated with serial dilutions of the monoclonal antibodies for 1 hour at room temperature. The plates were then washed with PBS containing 0.1% Tween-20 (PBS-T). Alkaline Phosphatase-conjugated Goat Anti-Human IgG (Southern Biotech, 2040-04, 1:1000 in PBS-B) was added. The secondary antibody reactions were incubated for 1 h. Plates were washed three times with PBS-T, and P-NitroPhenyl Phosphate (pNPP, Sigma-Aldrich, cat #N2765-100TAB) substrate was added and incubated for 30 min or until the development of a colorimetric reaction. The absorbance at 405 nm was measured by a microplate reader (Biotek, Elx808). The data was plotted with Graphpad Prism software. Representative mAbs from each class were tested for their binding to O1 LPS (FIG. 2A) and O2 LPS (FIG. 2B), and EC50 values were obtained (FIG. 2C). The majority of the anti-O2 LPS mAbs bound to both O1 and O2 LPS by ELISA. […] None of these LPS mAbs bound to the 03, 04, 05, 07, or 012 LPS serotypes (see e.g., FIG. 1A).

Row | Molecule | binding to LPS-O1
7 | B5 | bound
8 | B1 | confirmed to bind
9 | B2 | bind
10 | B4 | bind

test system: O2 LPS; assay: ELISA binding to O2 LPS; set-up: species or system Klebsiella pneumoniae; conditions: secondary screening, ELISA
Procedure: as §2, §3

Row | Molecule | binding to LPS-O2
11 | B5 | bound
12 | B1 | confirmed to bind
13 | B2 | bind
14 | B3 | bound specifically
15 | B4 | bind

test system: K. pneumoniae 43816ΔcpsBLux (O1); assay: Opsonophagocytic killing (OPK) assay, O1 capsule mutant; assay type: cell-based, Klebsiella pneumoniae; set-up: key to D Capsule OPK O1: +++: Strongly positive activity; +: Positive activity; +/−: Somewhat positive depending upon the test conditions; conditions: capsule mutant strain 43816ΔcpsB lux (O1)
Procedure: (§4) OPK activity of anti-O2 LPS mAbs was tested against O1 and O2 strains. Briefly, log phase cultures of luminescent K. pneumoniae strains 8570ΔcpsBLux (O2) and 43816ΔcpsBLux (O1) were diluted to ˜2×10^6 cells/ml. K. pneumoniae cells, 5e5/well dimethylformamide (DMF) differentiated HL-60 cells, cleared baby rabbit serum (1:10 Cedarlane), and a series dilution of antibodies (2 ng-2.5 μg/mL) were mixed in 96-well plates and incubated at 37° C. for two hours with shaking (250 rpm). The relative light units (RLUs) were then measured using a multi-mode microplate reader (Synergy 2, Biotek or envision multilabel plate reader, Perkin Elmer). The percentage of killing was determined by comparing RLU derived from assays with no antibodies to RLU derived from assays with anti-K. pneumoniae mAbs and assays performed with a negative control mAb. Positive killing was determined where the percentage of killing is above 40%.

Row | Molecule | D Capsule OPK O1
16 | B1 | +

test system: O2 LPS activation of NF-κB in RAW264.7-lux cells; assay: LPS neutralization assay (NF-κB luciferase, RAW264.7-lux), O2 LPS; assay type: cell-based, murine; set-up: key to LPS Neut O2: +++: Strongly positive activity; +: Positive activity; +/−: Somewhat positive depending upon the test conditions; conditions: Table 7 summary
Procedure: as §1

Row | Molecule | LPS Neut O2
17 | B1 | +
18 | B2 | +/−
19 | B3 | +/−

same assay, conditions: human IgG1 format

Row | Molecule | neutralizing activity against O2 LPS (NF-κB activation)
20 | B1 | moderate neutralizing activity
21 | B2 | moderate neutralizing activity
22 | B3 | moderate neutralizing activity
23 | B4 | blocked

same assay, conditions: secondary screening

Row | Molecule | neutralization of LPS-O2
24 | B5 | neutralized
25 | B1 | neutralize
26 | B2 | neutralize
27 | B3 | neutralized
28 | B4 | neutralize

test system: K. pneumoniae 8570ΔcpsBLux (O2); assay: Opsonophagocytic killing (OPK) assay, O2 capsule mutant; assay type: cell-based, Klebsiella pneumoniae; set-up: key to D Capsule OPK O2: +++: Strongly positive activity; +: Positive activity; +/−: Somewhat positive depending upon the test conditions; conditions: capsule mutant strain 8570ΔcpsB lux (O2)
Procedure: as §4

Row | Molecule | D Capsule OPK O2
29 | B5 | +++
30 | B1 | +
31 | B2 | +
32 | B3 | +++

same assay, conditions: secondary screening

Row | Molecule | OPK activity against O2 capsule mutant
33 | B5 | strong OPK activity
34 | B2 | showed OPK activity
35 | B3 | strong OPK activity
36 | B4 | showed OPK activity
